What all share (type): biochemical
Assay [1] can be described thus: UGT enzyme assay with crude E. coli lysates, UDP-Glc as sugar donor. Particulars: crude lysate, substrates OA, CBGA, heliCBGA, FIG. 8. The protocol:
Selected UGT genes from Helichrysum were individually cloned into the pET28b vector and expressed in E. coli BL21 (DE3) cells. Bacterial starters were grown overnight in LB medium at 37° C., diluted in fresh LB 1:100, and re-incubated at 37° C. When cultures reached A600=0.6, protein expression was induced with 400 μM of isopropyl-1-thio-β-d-galactopyranoside (IPTG) overnight at 15° C. Bacterial cells were lysed by sonication in 50 mM Tris-HCl pH 8, 0.5 mM phenylmethylsulfonyl fluoride (PMSF, Sigma Aldrich) solution in isopropanol, 10% glycerol and protease inhibitor cocktail (Sigma Aldrich), and 1 mg ml-1 lysozyme (Sigma Aldrich). […] Protein concentration of the eluted fractions was measured with Pierce™ 660 nm protein assay reagent (Thermo Scientific).
Recombinant UGT assays using different aromatic substrates were performed by mixing 1.5 μl of the UDP solution (80 mM, final concentration: 2.5 mM), 27.5 μl Tris buffer (100 mM), 1 μl of each of the substrates (50 mM, final concentration: 1 mM) and 20 μl of the lysate enzyme solution. […] To stop the reactions, 100 μl methanol was added to each tube, and the compounds were extracted and analyzed as previously described. […] […]

A short description of assay [2]: In vitro assays with purified UGTs and an array of cannabinoid substrates. Particulars: purified enzymes. The protocol: Selected UGT genes from Helichrysum were individually cloned into the pET28b vector and expressed in E. coli BL21 (DE3) cells. Bacterial starters were grown overnight in LB medium at 37° C., diluted in fresh LB 1:100, and re-incubated at 37° C. When cultures reached A600=0.6, protein expression was induced with 400 μM of isopropyl-1-thio-β-d-galactopyranoside (IPTG) overnight at 15° C. Bacterial cells were lysed by sonication in 50 mM Tris-HCl pH 8, 0.5 mM phenylmethylsulfonyl fluoride (PMSF, Sigma Aldrich) solution in isopropanol, 10% glycerol and protease inhibitor cocktail (Sigma Aldrich), and 1 mg ml-1 lysozyme (Sigma Aldrich). The whole-cell extract was either kept for functional activity or used for protein purification. Purification of proteins was performed on Ni-NTA agarose beads (Adar Biotech). The proteins were eluted with 200 mM imidazole (Fluka) in buffer containing 50 mM NaH2PO4, pH 8 and 0.5 M NaCl. Protein concentration of the eluted fractions was measured with Pierce™ 660 nm protein assay reagent (Thermo Scientific).
Recombinant UGT assays using different aromatic substrates were performed by mixing 1.5 μl of the UDP solution (80 mM, final concentration: 2.5 mM), 27.5 μl Tris buffer (100 mM), 1 μl of each of the substrates (50 mM, final concentration: 1 mM) and 20 μl of the lysate enzyme solution. The reactions were incubated at 30° C. for 1 h. To stop the reactions, 50 μl methanol were added to each tube, vortexed for 10 s, centrifuged at maximum speed for 10 min, and then the supernatant was recovered and used for UPLC-qTOF analysis. The assay with the purified UGTs was performed by mixing 2 μl of the cannabinoid acceptors (OA, DHSA, CBGA, heliCBGA, CBDA, A9-THCA, CBCA, olivetol, CBG, CBD or 49-THC, hexanoylphloroglucinol, naringenin chalcone or pinocembrin chalcone) in the presence of 1.5 μl UDP 80 mM, 46.5 μl Tris buffer (100 mM, pH 8.0) and 1 μl of each enzyme. To stop the reactions, 100 μl methanol was added to each tube, and the compounds were extracted and analyzed as previously described. Kinetics assays were performed with the purified enzymes (1.5 μg/μl) dissolved in 45 μl Tris buffer (100 mM, pH 8.0) and substrates were added using varying (0.5 μM-3 mM) and constant (1 mM) concentrations of OA and UDP and the total reaction volume was 50 μl. To stop the reactions, 100 μl methanol was added to each tube, and the compounds were extracted and analyzed as previously described.
Next, the inventors recombinantly expressed eleven of the thirteen UGTs from Helichrysum in E. coli and used the crude lysate to examine the activity of the proteins using OA, CBGA, and heliCBGA in a reaction including UDP-Glc as the sugar donor. […] The inventors screened the LC/HRMS chromatograms for glucosylated and diglucosylated products according to the theoretical m/z values. […] All the enzymes were active with varying substrate specificity and products produced.

Assay [3] is described as follows: Steady state kinetics assays of purified UGTs with OA and UDP. As to conditions: OA 0.5 μM-3 mM varying, UDP 1 mM constant; compared HuUGT11, HuUGT13, OsUGT, SrUGT; FIG. 12. The protocol: FIGS. 12A-12B include curves and a table showing comparison of steady state kinetic analysis of HuUGT11 and HuUGT13 versus OsUGT and SrUGT, with olivetolic acid and UDP-glc. (12A) The Michaelis-Menten Km value of each enzyme was calculated using varying (0.5 μM-3 mM) and constant (1 mM) concentrations of olivetolic acid and […] (n=3 technically independent samples; measurements were plotted individually). Since there was no analytical standard available for Glc-OA, V0 was calculated using the calibration curve of OA. (12B) A summary of the results presented in 12A. V0 and Vmax were calculated using the calibration curve of OA since there was no analytical standard available for Glc-OA.
Recombinant UGT assays using different aromatic substrates were performed by mixing 1.5 μl of the UDP solution (80 mM, final concentration: 2.5 mM), 27.5 μl Tris buffer (100 mM), 1 μl of each of the substrates (50 mM, final concentration: 1 mM) and 20 μl of the lysate enzyme solution. The reactions were incubated at 30° C. for 1 h. […] To stop the reactions, 100 μl methanol was added to each tube, and the compounds were extracted and analyzed as previously described. […] To stop the reactions, 100 μl methanol was added to each tube, and the compounds were extracted and analyzed as previously described.

B1: HuUGT11: UDP-glycosyltransferase from Helichrysum umbraculigerum, recombinantly expressed in E. coli (protein, listed as Helichrysum umbraculigerum)
chain: MGSLKKGAHILIFPFPAQGHMLPLLDLTHHLATNGLTITILVTPKNLPILNPLLSSSPNIQPLVFPFPPHPRLPPHVENVKDIGNHANVPITNSLAKLQDQIIQWFNSHHNPPVAIISDFFLGWTQHLANKLGIPRVGFFSSGAYLTAVLDYVCHNIKTVRSQEETVFHDLPNSPCFKFEHLPGLAQIYKESDPEWELVLDGHIANGLSWGWIVNTFDGLESRYMEYLTKKMGVGRVFGVGPVNLLNGSDPMTRGKSESGSDSGVLNWLDGKPDGSVLYVCFGSQKFLTNDQMEGLSIGLEQSGVHYVWVVKDEQGDAIRSGSGRGLVVTGWAPQVSILGHGAVGGFLSHCGWNSVLEAIVNGVMILAWPMEADQFVNAKLLVDDHGIGVWVCEGPNTVPDSTELARKIGESMSTDKSEKVKAKEMKNKANEAVKEGGSSSMELSRLVKELSNFETNGP
For B1, in assay [1], the “activity of lysates containing HuUGTs on the different substrates” value is listed as “showed activity”. For the same molecule, in assay [2], the “activity on the cannabinoid intermediates” value is “highly active” and the “activity on the prenylated compounds” value was “almost inactive”. For the same molecule, in assay [3], the “catalytic performance in kinetics assays versus the other enzymes” value is reported as “impressive catalytic advantage”.

B2: HuUGT6: UDP-glycosyltransferase from Helichrysum umbraculigerum, recombinantly expressed in E. coli (protein, listed as Helichrysum umbraculigerum)
chain: MTQKQMQMQPHFLLVTYPAQGHINPSLQFAERLIRLGVKVTFTTTVSAYRRMSKAGNISEFLNFAAFSDGFDDGFNFETDDHGLFLTQLRSRGKDSLKETILSNAKNGTPISCLVYTLLLPWAPEVARGLNVPSAFLWIQPASVLRLYYYYFNGYNELIGDDCNEPSWSIQLPGLPLLKS
Turning to B2, the “diglucosylation of acid compounds” value in assay [2] (UDP-glc, FIG. 11) is “only observed in case of HuUGT6”.

B3: HuUGT13: UDP-glycosyltransferase from Helichrysum umbraculigerum, recombinantly expressed in E. coli (protein, listed as Helichrysum umbraculigerum)
chain: MSLVTNNPHLLVYPLPTSGHIIPLLDLTDLLLRRGLTITVVISTTDLTLLDTLLSSHPTSLHKLYFPDPEIGPSSHPVIARIIATQKLFDPIVKWFESHPSPPVAIISDFFLGWTNELASRLGIRRVVFSPSGALGHSILQSLWRDVAEINAKNVDGNGNYSISFTDIPNSPEFHWWQLSQLLRVHREGDPDFEFFRNGMLANTKSWGIVYNTFERIEKVYIDHVKKQIGHDRVWAIGPLLPEEHGPVGSTARGGSSVVPPHDLLTWLDKKPHDSVVYICFGSRLTLSEKQMSALASALELSNVDFILCVKASGSSFIPSGFEDRVVGRGFVIKGWAPQLAILRHRAVGSFVTHCGWNSTLEGVSSGVMMLTWPMGADQYANAKLLVDQLGVGKRVCEGGPESVPDSTELARLLEESLSGDTSERVKVKELSREANTAVKEGTSIRDLNMFVNLLSEL
For B3, the “activity of lysates containing HuUGTs on the different substrates” value in assay [1] is given as “showed activity”. In addition, in assay [2], the “activity on the cannabinoid intermediates” value is on record as “highly active” and the “activity on the prenylated compounds” value was “almost inactive”.

The record behind these values is patent US20250207145A1, “URIDINE DIPHOSPHATE-GLYCOSYLTRANSFERASE AND A […], TISSUE, AND ORGANISM COMPRISING SAME” (YEDA RESEARCH AND DEVELOPMENT CO. LTD., priority 2022, published 2025).
